Patent US20210163599A1

B1: AVA04-251 BH (designed binder, from a related filing)
chain: MIPRGLSEAKPATPEIQEIVDKVKPQLEEKTNETYGKLEAVQYKTQVLAREGRQDWVLSTNYYIKVRAGDNKYMHLKVFNGPWVPFPHQQLADRVLTGYQVDKNKDDELTGFAEAAAKEAAAKEAAAKEAAAKEAAAKEAAAKMIPRGLSEAKPATPEIQEIVDKVKPQLEEKTNETYGKLEAVQYKTQVLAREGRQDWVLSTNYYIKVRAGDNKYMHLKVFNGPWVPFPHQQLADRVLTGYQVDKNKDDELTGFHHHHHH
B2: mAb anti huPD-L1 29E.2A3 (Biolegend) (antibody, from another filing, V domains shown)
VH: EVQLQQSGPELVKPGASVKMSCKASGYTFTSYVMHWVKQKPGQGLEWIGYVNPFNDGTKYNEMFKGKATLTSDKSSSTAYMELSSLTSEDSAVYYCARQAWGYPWGQGTLVTVSA
VL: DIVLTQSPASLAVSLGQRATISCRATESVEYYGTSLVQWYQQKPGQPPKLLIYAASSVDSGVPARFSGSGSGTDFSLTIHPVEEDDIAMYFCQQSRRVPYTFGGGTKLEIK

How the values were obtained:
[1] = biological target: huPD-L1-Fc (R&D Systems) (human) (UniProt Q9NZQ7); assay: Biacore, ligand rhPD-L1-Fc, Affimer as analyte
[2] = biological target: huPD-L1-Fc (R&D Systems) (human) (UniProt Q9NZQ7); assay: competition ELISA: hu CD80-Fc coated, 1.6 nM huPD-L1-Fc preincubated with the antibody
[3] = biological target: huPD-L1-Fc (R&D Systems) (human) (UniProt Q9NZQ7); assay: competition ELISA: hu PD-1-Fc coated, huPD-L1-Fc preincubated with the antibody

huPD-L1-Fc (R&D Systems) (human), sequence (Q9NZQ7 19-239 limits assumed): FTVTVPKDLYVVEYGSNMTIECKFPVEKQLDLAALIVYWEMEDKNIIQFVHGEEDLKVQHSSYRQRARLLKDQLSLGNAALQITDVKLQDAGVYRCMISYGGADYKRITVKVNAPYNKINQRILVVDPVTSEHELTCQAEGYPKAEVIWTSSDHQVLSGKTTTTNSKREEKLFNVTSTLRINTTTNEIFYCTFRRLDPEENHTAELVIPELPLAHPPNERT

Row | Binder | koff [1] [s⁻¹] | kon [1] [M⁻¹ s⁻¹] | IC50 [2] [nM] | IC50 [3] [nM]
1 | B1 | 0.00129 | 752000 | – | –
2 | B2 | – | – | 0.31 | 0.18
